Source: PMC11686114 (Frontiers in Immunology, 2024)
Positions count from the first letter of the chain named. Ends that are not written are not given here.

T1: TRBV5-1 antigenic peptide No. 1 (…) conjugated to BSA (human)
T1 sequence (peptide): TQTPRYLIKTRGQQ

T2: TRBV5-1 antigenic peptide No. 1 (TQTPRYLIKTRGQQ), peptide alone (Homo sapiens)
T2 construct: short form of antigenic peptide No. 1 of the TRBV5-1 segment of the human TCR beta chain; also called Ag1; Peptide N. 1; source: synthetic peptide (Proteogenix)
T2 chain: TQTPRYLIKTRGQQ

T3: TRBV5-1 antigenic peptide No. 1 (TQTPRYLIKTRGQQ), biotinylated (Homo sapiens, also: biotinylated (site not given here))
T3 construct: short form of antigenic peptide No. 1 of the TRBV5-1 segment of the human TCR beta chain; probably held on streptavidin, since its control is PBS-streptavidin (surmise); also called Ag3; peptide-biotin; source: synthetic peptide (Proteogenix)
T3 chain: TQTPRYLIKTRGQQ

B1: scFv clone A2 (scFv, V domains shown)
VH: QVQLQQSGPGLVKPSQTLSLTCAISGDSVSSNSAAWNWIRQSPSRGLEWLGRTYYRSKWYNDYAVSVKSRITINPDTSKNQFSLQLNSVTPEDTAVYYCARDQAAAEVYFDYWGQGTLVTVSS
VL: NFMLTQPHSVSESPGKTVTISCTRSSGSIASNYLQWYQQRPGSAPTTVIYEDNQRPSGVPDRFSGSIDSSSNSASLTISGLKTEDEADYYCQSYDNRNHWVFGGGTQLTVL
notes: tested as phage clone in the confirmatory monoclonal ELISA; source: phage display clone from the human naive scFv library LiAb-SFMAX (Proteogenix), amplified in E. coli TG1
B2: scFv clone A5 (scFv, V domains shown)
VH: B1 VH
VL: B1 VL with L34V, A44S, N96S, R97S, Q107K, L108V
notes: as printed identical to the VH of A2; tested as phage clone in the confirmatory monoclonal ELISA; source: phage display clone from the human naive scFv library LiAb-SFMAX (Proteogenix), amplified in E. coli TG1
B3: scFv clone A8 (scFv, V domains shown)
VH: QVQLVQSGPEMKKAGASVRVSCKGSGYTFSSFDINWVRQVPGQGLEWMGWMNPDTGNTGLAQKFQGRVTMTRDTSIRTAYMELRSLRSDDTAVYYCARDAPRNGRGMDVWGQGTMVTVSS
VL: SYELTQPPSVSVSPGQTARITCSGDALPKQYAYWYQQKPGQAPVLVIYQDTKRPSGIPERFSGSSSGTTVTLTISGVQAEDEADYYCQSADSSGTYPVFGGGTKLTVL
notes: as for B1
B4: scFv clone A12 (scFv, V domains shown)
VH: QVQLQQWGAGLLKPSETLSLTCAVYGGSFSGYYWSWIRQPPGKGLEWIGEINHSGSTNYNPSLKSRVTISVDTSKNQFSLKLSSVTAADTAVYYCARWDLDYWGQGTLVTVSS
VL: EIVLTQSPLSLPVTLGQSASISCRSSQSLVHSDGNTYLNWFQQRPGQSPRRLIYQVSKRDSGVPDRFSGSGSGTDFTLRISRVEAEDVGFYYCMQGTHWPPITFGQGTRLEIK
notes: tested as phage clone in the confirmatory monoclonal ELISA; lead scFv from which the r-hIgG1 mAb was made; also called lead scFv; source: phage display clone from the human naive scFv library LiAb-SFMAX (Proteogenix), amplified in …
B5: scFv clone C10 (scFv, V domains shown)
VH: EVQLVQSGAEVKKPGSSVKVSCKASGGTFSSYAISWVRQAPGQGLEWMGGIIPIFGTANYAQKFQGRVTITADKSTSTAYMELSSLRSEDTAVYYCAREPLRGYSGYDFYYYGMDVWGQGTMVTVSS
VL: SYELTQPHSVSGSPGETVTISCAGSGGSIASNYVQWYQQRPGSAPTTLIYEDKVRPSGVPDRFSGSIDYSSDSASLTISGLKTEDEADYYCQSADSTSTYVFGTGTKVTVL
notes: as for B1
B6: scFv clone D5 (scFv, V domains shown)
VH: QVQLVQSGAEVKKPGASVKVSCKPSGYYFNGYDITWVRQAIGQGLEWMGWMNPNSGNRDYAHQFQGRLTMTWDTSLSTAYLELNNLQSDDTAIYYCARERVSSGLDFWGQGTLVTVSS
VL: B3 VL with V46L, Q49K, T51S, K52E, P97V, K104Q
notes: as for B1

Legend:
Assay in all cases: ELISA; confirmatory monoclonal phage ELISA; antigens peptide alone, peptide-BSA, peptide-biotin; controls PBS, 10% BSA-PBS, PBS-streptavidin; phage dilution factors 1, 3, 9
[1] = molecular target: T1, TRBV5-1 antigenic peptide No. 1 (…) conjugated to BSA (human)
[2] = molecular target: T2, TRBV5-1 antigenic peptide No. 1 …; details: one partner purified
[3] = molecular target: T3, TRBV5-1 antigenic peptide No. 1 …; details: one partner purified

Row | Binder | ELISA signal at phage dilution factor 1 [1] | ELISA signal at phage dilution factor 3 [1] | ELISA signal at phage dilution factor 9 [1] | ELISA signal at phage dilution factor 1 [2] | ELISA signal at phage dilution factor 3 [2] | ELISA signal at phage dilution factor 9 [2] | ELISA signal at phage dilution factor 1 [3] | ELISA signal at phage dilution factor 3 [3] | ELISA signal at phage dilution factor 9 [3]
1 | B1 | 4.3 | 4.04 | 3.84 | 0.95 | 0.91 | 0.35 | 2.46 | 1.85 | 1.28
2 | B2 | 4.09 | 3.8 | 3.74 | 0.88 | 0.37 | 0.11 | 2.73 | 2.53 | 1.55
3 | B3 | 4.58 | 4.2 | 4.14 | 0.94 | 0.37 | 0.14 | 2.09 | 2.06 | 2
4 | B4 | 2.93 | 1.82 | 0.78 | 0.99 | 0.33 | 0.12 | 2.79 | 1.99 | 1.22
5 | B5 | 3.83 | 3.55 | 3.04 | 1.19 | 0.75 | 0.42 | 2.11 | 1.72 | 1.62
6 | B6 | 4.03 | 3.56 | 3.5 | 0.75 | 0.32 | 0.13 | 2.38 | 1.9 | 1.67
